Laboratory results taken from patent US20030157553A1, “Methods of assaying for G protein-coupled receptor ligands and modulators” (priority 2000, published 2003).

How the values were obtained:
[1] = tested on: β2AR; assay: Direct binding assay of in vitro translated tritiated arrestins to purified β2AR reconstituted into phospholipid vesicles; conditions: unphosphorylated β2AR, activated by 0.1 mM agonist isoproterenol; FIG. 1A
Text: (§1) Mutagenesis and Biochemical Characterization of β-Arrestins—Mutations Arg169→Glu (CGG→GAG), Gln394→Ter (CAA→TAA), and Asp383→Ter (GAT→TAG) were introduced by polymerase chain reaction in β-arrestin construct pBARR (Gurevich et al. (1995) J. Biol. Chem. 270:720-731), that was used for in vitro transcription and translation, as described (Gurevich et al. (1995), supra). NcoI/HindIII 1404-base pair open reading frame was then subdloned into appropriately digested Escherichia coliexpression vector pTrcHisB (Invitrogen). […]
Direct Binding Assay—In vitro translated tritiated arrestins (50 fmol) were incubated in 50 mM Tris-HCl, pH 7.5, 0.5 mM MgCl2, 1.5 mM dithiothreitol, 50 mM potassium acetate with 7.5 pmol of the various functional forms of rhodopsin or with P-β2AR or β2AR (100 fmol/assay) in a final volume of 50 μl for 5 min at 37° C. in room light (rhodopsin) or for 60 min at 30° C. in the presence of 0.1 mM -agonist isoproterenol. […] Nonspecific binding determined in the presence of 0.3 μg of liposomes was subtracted.

[2] = tested on: β2AR; assay: Agonist affinity shift assay ([125I] iodopindolol), formation of high agonist affinity complex (HAC); assay type: binding; conditions: 1 μM arrestin, FIG. 2A
Text: as §1
Agonist Affinity ShiftAssay—P-β2AR or β2AR (10-15 fmol/assay) was incubated in 0.25 ml of 10 mM Tris-HCl, pH 7.4, 100 mM NaCl (buffer A) containing 0.1 mg/ml bovine serum albumin in the presence of 65-75 fmol of [^125I] iodopindolol (NEN Life Science Products) and the indicated concentrations of arrestins and agonists for 60 min at 22° C. […] Receptor-containing liposomes with bound radioligand were eluted with buffer A (between 0.6 and 1.5 ml), and radioactivity was quantitated in a liquid scintillation counter. Nonspecific binding was determined in the presence of 10 μM alprenolol. […]

B1: β-arrestin-(Arg169→Glu): bovine β-arrestin mutant Arg169→Glu that reverses the charge of the putative phosphorylation-sensitive trigger (protein)
chain: MGDKGTRVFKKASPNGKLTVYLGKRDFVDHIDLVEPVDGVVLVDPEYLKERRVYVTLTCAFRYGREDLDVLGLTFRKDLFVANVQSFPPAPEDKKPLTRLQERLIKKLGEHAYPFTFEIPPNLPCSVTLQPGPEDTGKACGVDYEVKAFCAENLEEKIHKRNSVRLVIEKVQYAPERPGPQPTAETTRQFLMSDKPLHLEASLDKEIYYHGEPISVNVHVTNNTNKTVKKIKISVRQYADICLFNTAQYKCPVAMEEADDTVAPSSTFCKVYTLTPFLANNREKRGLALDGKLKHEDTNLASSTLLREGANREILGIIVSYKVKVKLVVSRGGLLGDLASSDVAVELPFTLMHPKPKEEPPHREVPEHETPVDTNLIELDTNDDDIVFEDFARQRLKGMKDDKEEEEDGTGSPRLNDR
binding to activated unphosphorylated receptor [1]: significantly higher binding | percentage of HAC formed by unphosphorylated β2AR [2]: 22±4%
